Test results: patent US20250011427A1 (CONCEPT TO MEDICINE BIOTECH, published 2025)
Numbering of substitutions follows the chain as printed.

B1: Hu155A9B1-1 (antibody, V domains shown)
VH: EVQLQESGPGLVKPSETLSLTCTVSGGSISSYNVHWIRQPPGKGLEWIGRVRYNGDTSYNSALKSRVTISVDTSKNQFSLKLSSVTAADTAVYYCARGPYGGSSEPLFDYWGQGTMVTVSS
VL: DIQMTQSPSSLSASVGDRVTITCKASQNINKYLNWYQQKPGKAPRLLIYTTNNLQTGVPSRFSGSGSGTDFTLTISSLQPEDFATYYCLQHNSGYTFGQGTKLEIK
B2: Hu155A9B1-13 (antibody, V domains shown)
VH: B1 VH
VL: B1 VL with Y36F, V58I, Y87F
B3: SP34 monoclonal antibody (antibody, human IgG1, lambda, N297A, V domains shown)
VH: EVQLVESGGGLVQPKGSLKLSCAASGFTFNTYAMNWVRQAPGKGLEWVARIRSKYNNYATYYADSVKDRFTISRDDSQSILYLQMNNLKTEDTAMYYCVRHGNFGNSYVSWFAYWGQGTLVTVSA
VL: QAVVTQESALTTSPGETVTLTCRSSTGAVTTSNYANWVQEKPDHLFTGLIGGTNKRAPGVPARFSGSLIGDKAALTITGAQTEDEAIYFCALWYSNLWVFGGGTKLTVLG
notes: Benchmark, bought (Biointron, B6762)

Assays:
[1] = target: human CD3 on cells (human PBMC; Jurkat-CD3-NFAT and TCR/CD3 Effector reporter cells) (human) (UniProt P07766); assay: cell-based or functional assay
[2] = target: T1, human CD3 on cells (human PBMC; Jurkat-CD3-NFAT and TCR/CD3 Effector reporter cells) (human, UniProt P07766 23-207; P04234 22-171; P09693 23-182); assay: FACS on human PBMC, PE goat anti-human IgG Fc secondary antibody, geometric mean fluorescence
T1 construct: whole, on cells; The CD3 complex as carried by T cells; also called huPBMC; CD3 receptor
Procedure: FACS was used to evaluate the binding activity of 153A6B1, 155A9B1, and 192A7B9 chimeric mAbs on human or cynomolgus PBMC. SP34 (Biointron, B6762) and OKT3 (Biointron, B6928) served as the benchmark controls.
Briefly, cynoPBMCs were first incubated with 3-fold serially diluted 153A6B1, 155A9B1, and 192A7B9 chimeric mAbs starting at 10 nM at 4° C. for 30 mins. While huPBMCs were incubated with 4-fold serially diluted 153A6B1, 155A9B1, and 192A7B9 chimeric mAbs starting at 10 nM at 4° C. for 30 mins. After washing by PBS, PE Goat anti-Human IgG Fc Secondary Antibody (eBioscience™, Invitrogen) was added to each well and incubated at 4° C. for 30 mins. Samples were washed twice with FACS buffer. The mean florescence intensity (MFI) of PE was evaluated by MACSQuant Analyzer 16.

Sequence of human CD3 on cells (human PBMC; Jurkat-CD3-NFAT and TCR/CD3 Effector reporter cells) (human) (P07766 23-207, chain 1 of 3): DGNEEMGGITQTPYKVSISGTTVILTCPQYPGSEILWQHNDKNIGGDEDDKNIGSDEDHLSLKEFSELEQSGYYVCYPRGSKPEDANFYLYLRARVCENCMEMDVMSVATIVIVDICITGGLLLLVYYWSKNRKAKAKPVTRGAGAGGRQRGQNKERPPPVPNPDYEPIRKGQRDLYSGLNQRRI
Sequence of human CD3 on cells (human PBMC; Jurkat-CD3-NFAT and TCR/CD3 Effector reporter cells) (human) (P04234 22-171, chain 2 of 3, further chain): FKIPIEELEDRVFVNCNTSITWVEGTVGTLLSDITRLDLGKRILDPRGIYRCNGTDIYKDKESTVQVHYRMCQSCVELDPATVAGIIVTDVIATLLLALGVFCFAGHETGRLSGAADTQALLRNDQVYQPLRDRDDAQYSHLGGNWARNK
Sequence of human CD3 on cells (human PBMC; Jurkat-CD3-NFAT and TCR/CD3 Effector reporter cells) (human) (P09693 23-182, chain 3 of 3, further chain): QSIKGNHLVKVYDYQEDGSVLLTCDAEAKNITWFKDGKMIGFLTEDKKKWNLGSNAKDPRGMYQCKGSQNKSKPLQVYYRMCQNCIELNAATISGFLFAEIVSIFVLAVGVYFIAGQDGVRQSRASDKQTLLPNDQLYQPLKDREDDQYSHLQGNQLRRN
T1 sequence (P07766 23-207, chain 1 of 3): as the sequence (P07766 23-207, chain 1 of 3) above
T1 sequence (P04234 22-171, chain 2 of 3): as the sequence (P04234 22-171, chain 2 of 3, further chain) above
T1 sequence (P09693 23-182, chain 3 of 3): as the sequence (P09693 23-182, chain 3 of 3, further chain) above

Row | Binder | % of SP34 [1] [%] | EC50 (read off the curve) [2] [nM]
1 | B1 | 14.2 | –
2 | B2 | 18.4 | –
3 | B3 | – | ~0.3
